# Molecular target: T1, bovine serum albumin (bovine, UniProt P02769 25-607)
# T1 construct: Control coat in the ELISA; also called BSA
# Assay: ELISA, wells coated with BSA alone, Wg conditioned medium
# Procedure: First, an ELISA was used to measure sFRP-1 binding to Wg. Wells were coated with purified full-length sFRP-1 and then blocked with an excess of BSA. Subsequently, conditioned medium from S2HSWg cells expressing soluble Wg was incubated in the wells overnight at room temperature. As a control, aliquots of the same medium were incubated in wells treated with BSA but not sFRP-1. […] In contrast, little Wg was detected in wells that had not been treated with sFRP-1 , and no signal was observed when medium lacking Wg was used in the assay (FIG. 3, A and B).
# sFRP-1/Wg ELISA Binding Assays—sFRP-1 diluted in 0.02% NaN₃/PBS was incubated in 96-well Falcon ELISA plates (300 ng/[…]) for 2 h at 37° C. After decanting, all wells were filled with 4% BSA/0.02% NaN₃/PBS and incubated for an additional 2 h at 37° C. Following five washes with TAPS (0.05% Tween-20 in 0.02% NaN₃/PBS), […] of Wg-containing or S2 control medium diluted in 1% BSA/TAPS were incubated overnight at room temperature. After five washes with TAPS, […] of Wg mAb diluted in 1% BSA/TAPS to a final concentration of […] was incubated in wells for 2 h at 37° C. Another five washes in TAPS were followed by a 2 h treatment at 37° C. with 1:400 dilution of conjugated alkaline phosphatase-goat anti-mouse IgG (Sigma). […] Absorbance at 405 nm was measured with an ELISA plate reader (Bio-Rad, Hercules, Calif.). […]
# T1 sequence (P02769 25-607 limits assumed): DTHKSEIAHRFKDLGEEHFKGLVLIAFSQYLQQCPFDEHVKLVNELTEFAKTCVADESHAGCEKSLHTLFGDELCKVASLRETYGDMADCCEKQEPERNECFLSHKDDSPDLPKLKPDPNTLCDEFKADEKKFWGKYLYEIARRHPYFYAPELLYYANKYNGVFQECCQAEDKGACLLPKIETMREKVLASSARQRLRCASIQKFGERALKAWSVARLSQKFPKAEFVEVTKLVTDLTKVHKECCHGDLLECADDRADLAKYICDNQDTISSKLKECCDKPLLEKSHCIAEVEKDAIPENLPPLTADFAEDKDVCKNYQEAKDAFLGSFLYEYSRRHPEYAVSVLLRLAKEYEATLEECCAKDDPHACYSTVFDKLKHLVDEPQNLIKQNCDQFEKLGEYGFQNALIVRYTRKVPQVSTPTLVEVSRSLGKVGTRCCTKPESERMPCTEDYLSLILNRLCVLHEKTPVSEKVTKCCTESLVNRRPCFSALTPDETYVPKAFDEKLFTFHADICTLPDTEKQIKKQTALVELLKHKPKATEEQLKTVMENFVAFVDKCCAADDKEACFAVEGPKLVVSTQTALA
binder,measurement,value
"Wingless (Wg), soluble, in conditioned medium of S2HSWg cells (ligand, Drosophila melanogaster, UniProt P09615 18-468, looked up, Used as unpurified conditioned medium; also called Wg medium; Wg-containing medium) GSSLSQVEGKQKSGRGRGSMWWGIAKVGEPNNITPIMYMDPAIHSTLRRKQRRLVRDNPGVLGALVKGANLAISECQHQFRNRRWNCSTRNFSRGKNLFGKIVDRGCRETSFIYAITSAAVTHSIARACSEGTIESCTCDYSHQSRSPQANHQAGSVAGVRDWEWGGCSDNIGFGFKFSREFVDTGERGRNLREKMNLHNNEAGRAHVQAEMRQECKCHGMSGSCTVKTCWMRLANFRVIGDNLKARFDGATRVQVTNSLRATNALAPVSPNAAGSNSVGSNGLIIPQSGLVYGEEEERMLNDHMPDILLENSHPISKIHHPNMPSPNSLPQAGQRGGRNGRRQGRKHNRYHFQLNPHNPEHKPPGSKDLVYLEPSPSFCEKNLRQGILGTHGRQCNETSLGVDGCGLMCCGRGYRRDEVVVVERCACTFHWCCEVKCKLCRTKKVIYTCL",binding result,no binding

# Source: US20030187223A1 (US Dept. of Health and Human Services, published 2003)
